Experimental data taken from paper PMC10638397, “Engineering sulfonate group donor regeneration systems to boost biosynthesis of sulfated compounds” (Nature Communications, 2023).

Key:
[1] = substrate: Nc1ncnc2c1ncn2[C@@H]1O[C@H](COP(=O)(O)OS(=O)(=O)O)[C@@H](OP(=O)(O)O)[C@H]1O; assay: sulfotransferase kinetics, HPLC-MS; type: biochemical, Mus musculus; conditions: Mg2+, pH 7.5, 35 °C (general assay), acceptor not given
[2] = substrate: Nc1ncnc2c1ncn2[C@@H]1O[C@H](COP(=O)(O)OS(=O)(=O)O)[C@@H](OP(=O)(O)O)[C@H]1O; assay: sulfotransferase kinetics, HPLC-MS; type: biochemical, Mycolicibacterium smegmatis; conditions: sulfonate acceptor trehalose, Mg2+, pH 7.5, 35 °C (general assay)
From the text: sulfotransferase kinetics, HPLC-MS on trehalose sulfotransferase (Stf0)

[3] = substrate: Nc1ncnc2c1ncn2[C@@H]1O[C@H](COP(=O)(O)OS(=O)(=O)O)[C@@H](O)[C@H]1O; assay: purified protein; conditions: Mg2+, pH 7.5, 35 °C (general assay), acceptor not given
[4] = substrate: Nc1ncnc2c1ncn2[C@@H]1O[C@H](COP(=O)(O)OS(=O)(=O)O)[C@@H](OP(=O)(O)O)[C@H]1O; assay: sulfotransferase kinetics, HPLC-MS; type: biochemical, Rattus norvegicus; conditions: Mg2+, pH 7.5, 35 °C (general assay), acceptor not given
From the text: sulfotransferase kinetics, HPLC-MS on aryl sulfotransferase IV (AST IV)

B1: estrogen sulfotransferase (EST) (Mus musculus) (protein)
chain: METSMPEYYEVFGEFRGVLMDKRFTKYWEDVEMFLARPDDLVIATYPKSGTTWISEVVYMIYKEGDVEKCKEDAIFNRIPYLECRNEDLINGIKQLKEKESPRIVKTHLPPKLLPASFWEKNCKMIYLCRNAKDVAVSYYYFLLMITSYPNPKSFSEFVEKFMQGQVPYGSWYDHVKAWWEKSKNSRVLFMFYEDMKEDIRREVVKLIEFLERKPSAELVDRIIQHTSFQEMKNNPSTNYTMMPEEMMNQKVSPFMRKGIIGDWKNHFPEALRERFDEHYKQQMKDCTVKFRMEL
Work on B1 yielded a Km [1] of 1560 ± 260 µM, a kcat [1] of 0.00849 ± 0.000572 s⁻¹ and a kcat/Km [1] of 5.44 M⁻¹ s⁻¹.

B2: trehalose sulfotransferase (Stf0) (Mycolicibacterium smegmatis MC2 155) (protein)
chain: MSDHPTAYLVLASQRSGSTLLVESLRATGVAGEPQEFFQYLPNTSMSPQPREWFADVEDQSILRLLDPLIEGKPDLAPATIWRDYIQTVGRTPNGVWGGKLMWNQTPLLVQRAKDLPDRSGSGLLSAIRDVVGSDPVLIHIHRPDVVSQAVSFWRAVQTRVWRGRPDPVRDARAEYHAGAIAHVITMLRAQEEGWRAWFTEENVEPIDVDYPYLWRNLTEVVGTVLEALGQDPRLAPKPVLERQADQRSDEWVERYRRDAQRDGLPL
B2 showed a Km [2] of 820 ± 60 µM, a kcat [2] of 0.00988 ± 0.00025 s⁻¹ and a kcat/Km [2] of 12.1 M⁻¹ s⁻¹.

B3: aryl sulfotransferase IV (AST IV) (Rattus norvegicus) (protein)
chain: MEFSRPPLVHVKGIPLIKYFAETIGPLQNFTAWPDDLLISTYPKSGTTWMSEILDMIYQGGKLEKCGRAPIYARVPFLEFKCPGVPSGLETLEETPAPRLLKTHLPLSLLPQSLLDQKVKVIYIARNAKDVVVSYYNFYNMAKLHPDPGTWDSFLENFMDGEVSYGSWYQHVKEWWELRHTHPVLYLFYEDIKENPKREIKKILEFLGRSLPEETVDSIVHHTSFKKMKENCMTNYTTIPTEIMDHNVSPFMRKGTTGDWKNTFTVAQNERFDAHYAKTMTDCDFKFRCEL
notes: recombinant in E. coli; N-terminal GST fusion printed for the whole-cell work
B3 was tested, and the Km [3] was 2450 ± 500 µM, the kcat [3] was 0.00688 s⁻¹ and the kcat/Km [3] was 2.81 M⁻¹ s⁻¹. For the same protein, the Km [4] was 1430 ± 172 µM, the kcat [4] was 0.0131 ± 0.000614 s⁻¹ and the kcat/Km [4] was 9.19 M⁻¹ s⁻¹.
